Data as given in paper PMC12418388, “DDX6 interacts with DDX3X to repress translation in microRNA-mediated silencing” (Nucleic Acids Research, 2025).

Target: T1, GST-DDX6 (wild type), recombinant (UniProt P54823 1-483)
T1 construct: DDX6 (DEAD-box helicase 6); Cloned in pGEX-KG; also called wild-type DDX6; source: E. coli BL21(DE3), purified (Glutathione Sepharose 4B)
T1 sequence (looked up): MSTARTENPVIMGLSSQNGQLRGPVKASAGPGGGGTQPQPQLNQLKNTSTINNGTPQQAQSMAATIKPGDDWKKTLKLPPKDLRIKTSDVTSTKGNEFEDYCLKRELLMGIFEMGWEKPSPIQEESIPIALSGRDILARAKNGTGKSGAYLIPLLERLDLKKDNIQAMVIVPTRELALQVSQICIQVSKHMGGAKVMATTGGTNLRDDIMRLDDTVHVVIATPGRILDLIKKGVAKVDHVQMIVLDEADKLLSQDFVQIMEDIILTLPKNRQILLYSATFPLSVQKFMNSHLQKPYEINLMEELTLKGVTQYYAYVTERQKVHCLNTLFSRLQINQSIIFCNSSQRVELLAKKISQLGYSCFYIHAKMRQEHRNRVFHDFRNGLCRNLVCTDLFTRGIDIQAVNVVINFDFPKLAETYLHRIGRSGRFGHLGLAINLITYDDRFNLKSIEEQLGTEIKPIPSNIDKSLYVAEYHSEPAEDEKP
Test: BLI; BLItz; 6xHis-MBP-DDX3X^166-590 loaded on Ni-NTA biosensors; GST-DDX6 or GST-DDX6^Mut6 at 125, 250 and 500 nM; 20 mM Tris-HCl pH 8.0, 150 mM KCl, 0.02% Tween 20, DTT, 1 mg/ml BSA; global fit to a 1:1 model
Details: both partners purified

B1: 6xHis-MBP-DDX3X^166-590 (domain or fragment, UniProt Q62167 166-590, looked up)
chain: IPVEATGNNCPPHIESFSDVEMGEIIMGNIELTRYTRPTPVQKHAIPIIKEKRDLMACAQTGSGKTAAFLLPILSQIYADGPGEALRAMKENGRYGRRKQYPISLVLAPTRELAVQIYEEARKFSYRSRVRPCVVYGGAEIGQQIRDLERGCHLLVATPGRLVDMMERGKIGLDFCKYLVLDEADRMLDMGFEPQIRRIVEQDTMPPKGVRHTMMFSATFPKEIQMLARDFLDEYIFLAVGRVGSTSENITQKVVWVEEIDKRSFLLDLLNATGKDSLTLVFVETKKGADSLEDFLYHEGYACTSIHGDRSQRDREEALHQFRSGKSPILVATAVAARGLDISNVKHVINFDLPSDIEEYVHRIGRTGRVGNLGLATSFFNERNINITKDLLDLLVEAKQEVPSWLENMAFEHHYKGSSRGRSKS
notes: Cloned in pMCSG9; source: E. coli BL21(DE3), purified (Ni-NTA)
For B1, the Kd was 389 nM.
